The values that follow come from patent US20100077492A1.

The target of this assay is human PC4 protein (full length wild type) (human) (UniProt P53999). Kind of assay: cell-based or functional assay.

With “purified human XPG (without HMK tag) (from UniProt P28715 1-1186) (enzyme)”, the PC4 binding to a 10-nt DNA bubble substrate in an electrophoretic mobility shift assay after pre-incubation of the DNA with XPG was 44 nM.
